Test results published in patent US6635429B1, “Heterodimeric nuclear receptors proteins, genes encoding same, and usage thereof” (Institut National de la Sante et de la Recherche Medicale, dated 1993).

Molecular target: the molecule itself
Experiment: cell-based or functional assay

B1: human RARα1 (a.a. 1 to 462) (receptor)
chain: MASNSSSCPTPGGGHLNGYPVPPYAFFFPPMLGGLSPPGALTTLQHQLPVSGYSTPSPATIETQSSSSEEIVPSPPSPPPLPRIYKPCFVCQDKSSGYHYGVSACEGCKGFFRRSIQKNMVYTCHRDKNCIINKVTRNRCQYCRLQKCFEVGMSKESVRNDRNKKKKEVPKPECSESYTLTPEVGELIEKVRKAHQETFPALCQLGKYTTNNSSEQRVSLDIDLWDKFSELSTKCIIKTVEFAKQLPGFTTLTIADQITLLKAACLDILILRICTRYTPEQDTMTFSDGLTLNRTQMHNAGFGPLTDLVFAFANQLLPLEMDDAETGLLSAICLICGDRQDLEQPDRVDMLQEPLLEALKVYVRKRRPSRPHMFPKMLMKITDLRSISAKGAERVITLKMEIPGSMPPLIQEMLENSEGLDTLSGQPGGGGRDGGGLAPPPGSCSPSLSPSSNRSSPATHSP
For B1, the “OMPdecase activity of the DR5-URA3 reporter in yeast” value was about 5 fold.
